From the supplement of paper PMC9112550, “Optimization of the antimicrobial peptide Bac7 by deep mutational scanning” (BMC Biology, 2022) come the findings set out here.

This data set has as its system Escherichia coli TOP10. The experiment in a line: shrunken log2 fold change of peptide-encoding DNA abundance (4.5 h post-induction vs induction); higher = less antimicrobial activity (less host growth inhibition). To be noted: time post-induction: 4.5 h; library: site-saturation at positions 5, 18, 19, 20.
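Further: peptides expressed intracellularly from a pBAD plasmid library in pooled LB shake-flask culture, induced with 0.3% L-arabinose, DNA abundance read by NGS, three biological replicates, DESeq2 with apeglm shrinkage.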

Turning to RRIRTRPPRLPRPRPRPELVPRP, the “shrunken log2 fold change” value worked out at 0.0224.
With RRIRHRPPRLPRPRPRPFRIPRP, the “shrunken log2 fold change” value was -0.127.
RRIRPRPPRLPRPRPRPAGEPRP: the “shrunken log2 fold change” value was 0.418.
As for RRIRFRPPRLPRPRPRPTPEPRP, the figure is 0.189; as for RRIRYRPPRLPRPRPRPSSCPRP, -0.101.
As to RRIRWRPPRLPRPRPRPSFRPRP, the “shrunken log2 fold change” value is -0.261.
As for RRIRARPPRLPRPRPRPGMTPRP, the “shrunken log2 fold change” value was 0.261.
As to RRIRWRPPRLPRPRPRPLPPPRP, the “shrunken log2 fold change” value stood at 0.686.
As for RRIRPRPPRLPRPRPRPYGEPRP, the figure is 0.0864.
With RRIRYRPPRLPRPRPRPIFCPRP, the “shrunken log2 fold change” value was -0.201.
Take RRIRSRPPRLPRPRPRPPIMPRP: the “shrunken log2 fold change” value is -0.0485.
Turning to RRIRIRPPRLPRPRPRPPNEPRP, the “shrunken log2 fold change” value was -0.365.
Consider RRIRVRPPRLPRPRPRPGYGPRP, for which the “shrunken log2 fold change” value is 0.0756.
As for RRIRVRPPRLPRPRPRPPGLPRP, the figure is 0.373; as for RRIRARPPRLPRPRPRPTEVPRP, 0.173; as for RRIRRRPPRLPRPRPRPLGFPRP, 0.592.
In the case of RRIRRRPPRLPRPRPRPLDQPRP it was -0.0226; in that of RRIRIRPPRLPRPRPRPRTPPRP, 0.089.
In the case of RRIRNRPPRLPRPRPRPGHIPRP it was -0.433; in that of RRIRLRPPRLPRPRPRPLIEPRP, 0.0414; in that of RRIRMRPPRLPRPRPRPDGMPRP, 1.73.
In the case of RRIRFRPPRLPRPRPRPGLLPRP, the “shrunken log2 fold change” value was 0.032.
Regarding RRIRGRPPRLPRPRPRPMYEPRP, the “shrunken log2 fold change” value was 0.282.
In the case of RRIRRRPPRLPRPRPRPGREPRP it was -0.0226; in that of RRIRVRPPRLPRPRPRPWMIPRP, -0.0467; in that of RRIRNRPPRLPRPRPRPLRRPRP, 2.43.
Take RRIRLRPPRLPRPRPRPLYLPRP: the “shrunken log2 fold change” value is -0.837.
In the case of RRIRRRPPRLPRPRPRPDKLPRP it was -0.115; in that of RRIRLRPPRLPRPRPRPCTNPRP, -0.094; in that of RRIRSRPPRLPRPRPRPCETPRP, 0.18.
With RRIRPRPPRLPRPRPRPWIVPRP, the “shrunken log2 fold change” value is -0.197.
RRIRHRPPRLPRPRPRPGRIPRP: the “shrunken log2 fold change” value turned out to be 0.136.
Regarding RRIRDRPPRLPRPRPRPERFPRP, the “shrunken log2 fold change” value amounted to 0.361.
In the case of RRIRSRPPRLPRPRPRPGELPRP it was 0.0807.
As for RRIRERPPRLPRPRPRPRSVPRP, the figure is -0.219; as for RRIRMRPPRLPRPRPRPVDTPRP, 0.361; as for RRIRRRPPRLPRPRPRPWQLPRP, 0.144.
In the case of RRIRTRPPRLPRPRPRPTRPPRP it was 0.614.
Consider RRIRCRPPRLPRPRPRPHWLPRP, for which the “shrunken log2 fold change” value is -0.311.
As to RRIRARPPRLPRPRPRPLWLPRP, the “shrunken log2 fold change” value is 0.302.
As for RRIRKRPPRLPRPRPRPVFLPRP, the figure is -0.0387.
As to RRIRFRPPRLPRPRPRPSLNPRP, the “shrunken log2 fold change” value was -0.642.
Take RRIRNRPPRLPRPRPRPSRPPRP: the “shrunken log2 fold change” value was 0.112.
On to RRIRMRPPRLPRPRPRPCYFPRP, for which the “shrunken log2 fold change” value was -0.289.
In the case of RRIRSRPPRLPRPRPRPQSWPRP it was 0.722; in that of RRIRRRPPRLPRPRPRPISRPRP, -0.0551; in that of RRIRIRPPRLPRPRPRPEFVPRP, -0.0754.
As to RRIRDRPPRLPRPRPRPSVIPRP, the “shrunken log2 fold change” value was 0.0683.
With RRIRTRPPRLPRPRPRPIVWPRP, the “shrunken log2 fold change” value is -0.0862.
In the case of RRIRVRPPRLPRPRPRPDYMPRP it was 0.0631.
In the case of RRIRRRPPRLPRPRPRPQNQPRP it was 0.0537.
As for RRIRKRPPRLPRPRPRPQNEPRP, the figure is -0.0827.
For the sequence RRIRLRPPRLPRPRPRPEVIPRP, the “shrunken log2 fold change” value turned out to be 0.178.
As for RRIRARPPRLPRPRPRPEDDPRP, the figure is 0.306; as for RRIRWRPPRLPRPRPRPAPPPRP, 0.579.
With RRIRQRPPRLPRPRPRPIPHPRP, the “shrunken log2 fold change” value came to 0.021.
As for RRIRRRPPRLPRPRPRPPSEPRP, the figure is 0.974; as for RRIRYRPPRLPRPRPRPVYYPRP, -0.68; as for RRIRRRPPRLPRPRPRPCLSPRP, -0.114.
As for RRIRVRPPRLPRPRPRPTCRPRP, the figure is 0.147; as for RRIRPRPPRLPRPRPRPDKCPRP, -0.432.
In the case of RRIRRRPPRLPRPRPRPIDCPRP it was 0.00203; in that of RRIRGRPPRLPRPRPRPHDYPRP, 0.0282; in that of RRIRWRPPRLPRPRPRPAWYPRP, 0.0415.
With RRIRSRPPRLPRPRPRPHHMPRP, the “shrunken log2 fold change” value is -1.11.
On to RRIRGRPPRLPRPRPRPWDYPRP, for which the “shrunken log2 fold change” value was determined as 0.183.
As to RRIRHRPPRLPRPRPRPESLPRP, the “shrunken log2 fold change” value was -0.245.
Turning to RRIRCRPPRLPRPRPRPHNKPRP, the “shrunken log2 fold change” value is -0.75.
Take RRIRSRPPRLPRPRPRPEEIPRP: the “shrunken log2 fold change” value was -0.00908.
Regarding RRIRCRPPRLPRPRPRPAIIPRP, the “shrunken log2 fold change” value is -0.786.
As for RRIRWRPPRLPRPRPRPPPGPRP, the figure is 1.08; as for RRIRLRPPRLPRPRPRPQNMPRP, -0.232.
On to RRIRSRPPRLPRPRPRPLDEPRP, for which the “shrunken log2 fold change” value amounted to 0.189.
For the sequence RRIRQRPPRLPRPRPRPVPSPRP, the “shrunken log2 fold change” value was -0.0282.
As for RRIRNRPPRLPRPRPRPMRVPRP, the figure is 0.161; as for RRIRRRPPRLPRPRPRPYNDPRP, -0.176.
As for RRIRGRPPRLPRPRPRPLCGPRP, the figure is 0.78; as for RRIRKRPPRLPRPRPRPKVTPRP, 0.0261.
For RRIRCRPPRLPRPRPRPRETPRP, the “shrunken log2 fold change” value is 0.647.
As for RRIRRRPPRLPRPRPRPDSNPRP, the figure is 0.0666.
As for RRIRDRPPRLPRPRPRPCLNPRP, the figure is 0.0235; as for RRIRVRPPRLPRPRPRPRSIPRP, 3.22.
As for RRIRLRPPRLPRPRPRPLTNPRP, the figure is -0.325.
RRIRCRPPRLPRPRPRPKYYPRP: the “shrunken log2 fold change” value turned out to be 0.167.
In the case of RRIRRRPPRLPRPRPRPLVEPRP it was 0.116.
For the sequence RRIRKRPPRLPRPRPRPCWSPRP, the “shrunken log2 fold change” value was 0.00256.
As for RRIRTRPPRLPRPRPRPMDVPRP, the figure is -0.303; as for RRIRQRPPRLPRPRPRPKCIPRP, -0.0337.
As for RRIRDRPPRLPRPRPRPHPIPRP, the “shrunken log2 fold change” value is -0.152.
In the case of RRIRSRPPRLPRPRPRPSRQPRP it was -0.447.
In the case of RRIRYRPPRLPRPRPRPIWPPRP it was -0.00922.
